From PMC5436579 (2017)

Target: the molecule itself

B1: AmpR effector-binding domain (protein)
chain: LLERFEGGHYRDVLTVGAVGTFTVGWLLPRLEDFQARHPFIDLRLSTHNNRVDIAAEGLDYAIRFGGGAWHGTEALALFEAPLTVLCCPEVAAQLHSPADLLQHTLLRSYRADEWPLWFQAAGLPAHAPLTRSIVFDTSLAMLEAARQGVGVALAPAAMFARQLASESIRRPFATEVSTGSYWLTRLQSRGETSAMLAFRGWLLEMAAVEARGR
  Kd: < 1000 nM
